Experimental data: the supplement of paper PMC9170038

Test system: MS2 coat protein
Experiment: apparent KD of MS2 coat protein; designed switch direction (-1 OFF switch, 1 ON switch): -1; higher = weaker reporter binding
Outline: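 SNAP-549-labelled MS2 coat protein was titrated, doubling from 0.7 or 1.5 nM to 3 µM, over designed RNA switches transcribed on Illumina chips by stalled E. coli RNA polymerase. Runs were done without input, with 200 uM small-molecule ligand, or with an oligonucleotide input. Apparent KD is the per-design median over clusters of curve-fitted normalised fluorescence.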

[1] = input ligand: microRNA oligo, concentration not stated
[2] = Eterna round: R95, input ligand: microRNA oligo, concentration not stated

Row | Sequence | apparent KD of MS2 coat protein (input ligand: FMN 200 uM) [nM] | apparent KD of MS2 coat protein [1] [nM] | apparent KD of MS2 coat protein (input ligand: none) [nM] | apparent KD of MS2 coat protein [2] [nM]
1 | UUAUUAAUUAAGACUGCAAGAUCACAUGAGGAUCACCCAUGUCAGGAUAUCAGCUCGAUUAGAGCUGAGAAGGGACAAGCAGUC [ExNG3/15-A1] (Eterna round: R96, puzzle: Exclusion NG 3) | 334 | 112 | 99.6 | –
2 | UUAUUAAUUAAGACUGCAAGAUCACAUGAGGAUCACCCAUGUCAGGAUAUCAGCUCGUUUAGAGCUGAGAAGGGACAAGCAGUC [ExNG3/15-A2] (Eterna round: R96, puzzle: Exclusion NG 3) | 337 | 98 | 94.4 | –
3 | UUAUUAAUUAAUAUUAUAAGAUCACAUGAGGAUCACCCAUGUCAGGAUAUCAGCUCGAUUAGAGCUGAGAAGGGACAAAUAAUA [ExNG3/15-B1] (Eterna round: R96, puzzle: Exclusion NG 3) | 1450 | 157 | 268 | –
4 | UUAUUAAUUAAUAUUAUAAGAUCACAUGAGGAUCACCCAUGUCAGGAUAUCAGCUCGUGUAGAGCUGAGAAGGGACAAAUAAUA [ExNG3/15-B3] (Eterna round: R96, puzzle: Exclusion NG 3) | 576 | 451 | 306 | –
5 | UUAUUAUAUGAAGGAUAUACUUAACAUGAGGAUCACCCAUGUGGUGUUGUGAGUGAGUGAGUUUAGUAGAAGGUCAAUUAUUUU [JMF's solution 28] (Eterna round: R96, puzzle: Exclusion NG 2) | 833 | 287 | 335 | –
6 | UUAUUAUAUGUAGGAUAUGCAUAUUAUUAUUAUGCAGAAGGACAUGAGGAUCACCCAUGUAUAUUAUUAUUAUAUGUUAUAUAU [Title] (Eterna round: R96, puzzle: Exclusion NG 1) | – | 20.9 | – | –
7 | UUAUUAUAUGUAGGAUAUGCAUAUUAUUAUUAUGCAGAAGGACAUGAGGAUCACCCAUGUAUAUUGUUAUUAUAUAUUAUAUAU [Title] (Eterna round: R96, puzzle: Exclusion NG 1) | – | 21.7 | – | –
8 | UUAUUGGUAGUGAGGAUAUCGGAUAGAUAGAUAUUCGAGAAGGCACAUGAGGAUCACCCAUGUAAGAUUGGAAA [JR_BMEx4_Sub045] (Eterna round: R97, puzzle: Brourd's mod of Exclusion 4) | 155 | – | 38.5 | –
9 | UUAUUGGUUGUGAGGAUAUCGGAUAGAUAGAUAUUCGAGAAGGCACAUGAGGAUCACCCAUGUGUGAUUGGAAA [JR_BMEx4_Sub047] (Eterna round: R97, puzzle: Brourd's mod of Exclusion 4) | 276 | – | 27.9 | –
10 | UUAUUGUGAGGAUAUAUAUGCAGUAAUCCUUUAAAUUUAUAACUUGAGGAUCACCCAAGUAGAAGGCGCGAUAU [JR_Ex2_Sub055] (Eterna round: R97, puzzle: Exclusion 2) | 33 | – | 24.9 | –
11 | UUCAGACAUGAGGAUCACCCAUGUGAGGAUAUGAUGCGAUCGUCGAAAGACGAUAGCAUCAGAAGGCACAAAUG [Fiskers Ex 1 - 18] (puzzle: Exclusion 1) | – | – | – | 114
12 | UUCAGGCGAGGAUAUCCAUGAAGUAACAUGAGGAUCACCCAUGUUCGCUGUUACUCCGAAGGAGAAGGUGCUCUGG [Eternabot (L2) Solution 25] (Eterna round: R97, puzzle: Exclusion 5) | 196 | – | 100 | –
13 | UUCAUGUGAGGAUAUAGUACUCCUUCUAUUAUUUUUGAGUAUUAGAAGGCACAUGAGGAUCACCCAUGUAGUAC [Ex4 - 3 - 39] (puzzle: Exclusion 4) | – | – | – | 24.6
